Measured values from US20210332339A1.

Key:
[1] = biological target: RRR-type mutant ZFA36-ND1 (ZFA36 zinc finger array, TGAAARA linker, ND1 D489R/N543R) (Bacillus SGD-V-76); assay: cell-based or functional assay
[2] = biological target: RRR-type mutant ZFA36-FokI-ND (ZFA36 zinc finger array, TGAAARA linker, FokI nuclease domain D483R/H537R) (UniProt P14870); assay: cell-based or functional assay
RRR-type mutant ZFA36-FokI-ND (ZFA36 zinc finger array, TGAAARA linker, FokI nuclease domain D483R/H537R), sequence (P14870 other isoform, or with tags, fused parts or gaps D483R H537R D483R H537R): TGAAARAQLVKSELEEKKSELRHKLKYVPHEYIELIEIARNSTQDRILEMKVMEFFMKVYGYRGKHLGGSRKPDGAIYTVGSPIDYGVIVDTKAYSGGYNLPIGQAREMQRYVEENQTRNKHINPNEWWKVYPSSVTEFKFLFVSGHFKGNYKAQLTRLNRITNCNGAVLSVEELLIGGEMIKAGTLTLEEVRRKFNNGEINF

| cleavage activity of the reporter, SSA reporter assay, relative to the FokI-ND homodimer type [1] | cleavage activity of the target sequence (ZFL1-ZFA36) on the reporter, SSA reporter assay, relative to ZFA36-FokI [2] | cleavage activity of the target sequence (ZFL1-ZFA36) on the reporter, SSA reporter assay, relative to ZFA36-FokI [1] | cleavage activity of the reporter, SSA reporter assay [2] | Substance |
| --- | --- | --- | --- | --- |
| 60% | 60% | – | – | DDD-type mutant ZFL1-FokI-ND (hPGRN_ZFL1 zinc finger array, TGAAARA linker, FokI nuclease domain R487D/N496D) (from UniProt P14870 384-579) (enzyme) |
| – | – | 1.6 times | 80% | DDD-type mutant ZFL1-ND1 (hPGRN_ZFL1 zinc finger array, TGAAARA linker, ND1 R493D/N502D) (enzyme) |
